According to a protein production outcome set (Wang et al. 2014):

Test: label from the status in PepcDB records
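Note: failed if final PepcDB status was selected cloned or expressed and not failed if soluble or beyond.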

Sequence	protein production
MANEDCPKAADSPFSSDKHAQLILAQINKMRNGQHFCDVQLQVGQESFKAHRLVLAASSPYFAALFTGGMKESSKDVVPILGIEAGIFQILLDFIYTGIVNIGVNNVQELIIAADMLQLTEVVHLCCEFLKGQIDPLNCIGIFQFSEQIACHDLLEFSENYIHVHFLEVHSGEEFLALTKDQLIKILRSEELSIEDEYQVFLAAMQWILKDLGKRRKHVVEVLDPIRFPLLPPQRLLKYIEGVSDFNLRVALQTLLKEYCEVCKSPKENKFCSFLQTSKVRPRKKARKYLYAVGGYTRLQGGRWSDSRALSCVERFDTFSQYWTTVSSLHQARSGLGVTVLGGMVYAIGGEKDSMIFDCTECYDPVTKQWTTVASMNHPRCGLGVCVCYGAIYALGGWVGAEIGNTIERFDPDENKWEVVGNMAVSRYYFGCCEMQGLIYVIGGISNEGIELRSFEVYDPLSKRWSPLPPMGTRRAYLGVAALNDCIYSVGGWNETQDALHTVEKYSFEEEKWVEVASMKVPRAGMCVVAVNGLLYVSGGRSSSHDFLAPGTLDSVEVYNPHSDTWTEIGNMITSRCEGGVAVL	failed
MNTSEHEREHDHVIEVTDLRRVYGGDFEAVRGITFSVERGELFALLGTNGAGKTSTVELLEGLAAPSGGRVRVLGHDPYEERAAVRPRTGVMLQEGGFPSELTVAETVRMWAGCTSGARPVGEALSLVGLERRPDVRVKQLSGGERRRLDLALALLGRPEVLFLDEPTTGLDAEGRQETWELVRELRDGGTTVLLTTHYLEEAEGLADRLAILHEGRIATAGTPAEVTAAQPSRISFDLPDGYFLGDLPPLADLGVSTHETTGRTVRLRTHELQRTATALLLWAQRAQVELRGLDVRSASLEEAFLRIAREAAGDRPGRPGRTDVSGTTASGKEAVALEHHHHHH	not failed
MQGWLVIPVSLAYLGVLFLIAWYGDRQTRWLANWRPWIYSLSIAVYCTSWTFYGTVGQASVNPWSFLPIYIAPILMFVFGWRVLARLILIAKREHITSLADFIAARYGKSQGLAVAVTVIAVLGILPYIALQLRGITMGLNIVAPDLMTVYGYQESHVSWFVVLALALFTMLFGTRHIDNTEHHRGMMMAIAFESIVKLVAFLCVGVFIAYLAWRTDGLELSTIAASTYQAPNWPTLLIHTLLTMIAIVCLPRQFHTMVVENERPQDLHTARWLFPVYLLLMSLFVLPIAWTGQGLLPNTSPDTFVISLPVFAGAHDIALLAFLGGTSAASGMVIVSTIALAIMVSNDLVMPLLLRRMRLSQRTHRHFSGLLVVIRRTLILLLLFGAWGFYLVLDSIPSLSAIGFLSFSAITQFAPAIFGGMYWREGNRKGVYVGLAVGFTLWLITLMSATDMLAGDASNNVLLWVITPPDWLVALGLKSADWGMLLSVTLNTLCYIGVSLVTRASLSERLQAAAFVGTPLPENENMSLYQSRVTVGELEMLASRFVGRTRVRNAFAQYWSQQRETLLPNQQASSALIRHTERVLAGVFGASSAKLVLTSALQGRKMQLEEVATIVDEASELYDFSRGLLQGAIEHIGQGIAVVDKQLRLVAWNQRYLELFEFPPGLIQVGRPIADVIRHNAQQGLCGPGDPEDHVRRRVYHLEQGTSHTSSRVRADGRVIEVQGNPMPGGGFVMSFTDITVFREAEQSLKMANETLEERVLQRTLELEKLNKQLVTATQRSERESQSKSRFLAAVSHDLMQPLNAARLFASSLSEVAKEAEVQKLAHHIESALGAAEDLISDLLDISRLESGKIDLHPHSFAIMDVLSNLNAEFSALAAKQGVQFSLVPSLLWVHSDPKLLRRVIQNFLTNAFRYNPNGKVILGVRRVATGQVRIDVWDNGIGIEQDKQQEIFEEFNRGGQVRSDQGLGLGLAISKGIAHVLGHHISMRSWPGQGSVFSITLDRAQPMPSSLTQTVAMVNEKGSELQHLRVLCVDNEPDILVGMRDLLERWGCEVKTATDIHGSLKALEGQWIPDVILSDYRLDNGRTGLEVLQQCRLRLGDCFAGVIISADRNPDILDGIESSGFRFMAKPIKPLKLRALLNSLS	failed
MTAEETVNVKEVEIIKLILDFLNSKKLHISMLALEKESGVINGLFSDDMLFLRQLILDGQWDEVLQFIQPLECMEKFDKKRFRYIILKQKFLEALCVNNAMSAEDEPQHLEFTMQEAVQCLHALEEYCPSKDDYSKLCLLLTLPRLTNHAEFKDWNPSTARVHCFEEVCVMVAEFIPADRKLSEAGFKASNNRLFQLVMKGLLYECCVEFCQSKATGEEITESEVLLGIDLLCGNGCDDLDLSLLSWLQNLPSSVFSCAFEQKMLNIHVDKLLKPTKAAYADLLTPLISKLSPYPSSPMRRPQSADAYMTRSLNPALDGLTCGLTSHDKRISDLGNKTSPMSHSFANFHYPGVQNLSRSLLLENTECHSIYEESPERSDTPVETQQPVSIEPMCQGSGLEKEPANGAQNPVPAKQQEKNELRDSTEQFQEYYRQRLRYQQHLEQKEQQRQIYQQMLLEGGVNQEDGPDQQQNLTEQFLNRSIQKLGELNIGMDSLGNEVPVLNQQCLGSKNSGSNNSSVTSFSSPPQDSSQRLTHDTSNIHTSTPRNPGSTNHIPFLEESPCGSQNSSEHSVVKPSPGDSSGSLSRSKGEEDDKSKKQFVCINTLEDTQAVRAVAFHPSGSLYAVGSNSKTLRVCAYPEKLDTSAHDGPKQPVVRFKRNKHHKGSIYCVAWSPCGQLLATGSNDKYVKVLPFNAETCNATGPDLEFSMHDGTIRDLAFMEGPESGGAILISAGAGDCNIYTTDCQRGQGLHALSGHTGHILALYTWSGWMIASGSQDKTVRFWDLRVPSCVRVVGTTFHGTGSAVASVAVDPSGRLLATGQEDSSCMLYDIRGGRMVQSYHPHSSDVRSVRFSPGAHYLLTGSYDMKIKVTDLQGDLTKQLPLMVVGEHKDKVIQCRWHTQDLSFLSSSADRTVTLWTYSG	failed
MTWTNVLAMLVWTGASAVLLFAIMWVDSIFTKYNDLKEIKNGNTAVTTRFVMKLFAQGYILSQSITKANDLWQALLASAVSFVILLVVEMFIEFVLKKMAGLDLEEGTKEGSVAHAMLAGSLHIVGALILGACL	failed
GNLEEMNIDPDNATQTHPKLLLTQICMNAFKRGTDGMYATKKVIQADGESADQYYKWTRGSFGYYDNLRNVQKMGEEAERVNAPVYTALTKFFRAYYFYELTLRFGDIPYSQALKGEKEEIYTPEYDAQEDVFAGILQELREADEILANDASVIDGDIIYNGNSTQWRKLINSFRLKVLMTLSNHTTVGNINIASEFKNIATNSPLMNSLADNGQLVYLDQQGNRYPQFNAQWSGYYMDDTFIQRMRERRDPRLFIFSAQTNKGKTEGKPIDDFSSYEGGDPAAPYSDAIIKVSEGTISPINDRFRTDPIVEPTMLMGYAELQQILAEAVVRGWISGNAQTYYEKGIRASFSFYETHAKDYAGYLNENAVAQYLKEPLVDFTQASGTEEQIERIIMQKYLVTFYQGNWDSFYEQLRTGYPDFRRPAGTEIPKRWMYPQGEYDNNGTNVETAITRQFGAGNDKINQATWWQKKS	not failed
MQYSSFGEKFNRYSGITQLMDDLNDGLRTPGAIMLGGGNPAAIPAMLDYFHNTSAEMLADGSLLNAMTNYDGPQGKDVFVKSLATLLRETYGWNISEKNITLTNGSQSGFFYLFNLFAGKQPDGAHKKILLPLAPEYIGYGDAGIDDDIFVSYRPEIELLDQGLFKYHVDFSELKVDESVAAICVSRPTNPTGNVLTEEEIHKLDQLARDNGVPLIIDNAYGVPFPNIIFEDIEPFWNDNTILCMSLSKLGLPGLRCGIVIANEAVTQALTNMNGIISLAPGSMGPALVQRMIEKGDLLRLSEQVIKPFYRQKAQHAVELLQSAITDPRFRIHKPEGAIFLWLWFDELPITTMELYQRLKARGVLIVPGEYFFIGQPQEWPHAHECLRMNYVQNEQAMEQGIAIIAEEVQKAYQQANV	failed
MRHPYVFPACVAGALLVAGCAPKQTDEETVERAFQDVNVVDETNLSEVMLTVTDPNEAISYYQRTLKSDPDRLDLRRGLATSFVRAKRFTEAASAWEKVTELKDSTHEDSVNYADALIRSGDWDTAEKVLDTVPPTYETFKRYRLEAMMADANKEWRKADSFYETAIGLTTTPAGAFNNWGYSKLTRGDFSGAEKLFGQAIRQDPTLFTAKNNLVLARSAQRKYTLPVVPMTQSERAQLLHTMALSAVRQGDIQTSKSLLRDAIDTHPQHFDAAVRALEALERSG	failed
MPNFSKNEEVLFSAVNEIFEEKIPFNKIIGLKVRFISPEQVKLSFEMRDELIGNAIRRMLYGGVISSAIDMTAGLAAFMGFQEKMSGKPMEEKLAMIGRLSTMSLHVEYLRPGLGREFVCTGYNVRTGNKVAVIRTELMNDQDELIAVGSVSYILV	not failed
MAADGIFRSIFEGCISGLDSAIERRPYHKNCGCALHDKSSGAGKNQNQRRPPSCRRHGSSESISFPIRRSWSEGNIMAMNLFSSSSSSSNLQSLSSSSSLSNLASDLPVDNAATEEPSRSNKQLRWTIDEGEDD	failed
MGNYLLRKLSCLGENQKKPKKGNPDEERKRQEMTTFERKLQDQDKKSQEVSSTSNQENENGSGSEEVCYTVINHIPHQRSSLSSNDDGYENIDSLTRKVRQFRERSETEYALLRTSVSRPCSCTHEHDYEVVFPH	not failed
TALIASGLVPQPFYFYGFLPRKKNEQKADLAKLARRHETVVLYESPFRVAKTLTLLATVCEGTRPIVACRELTKRYEEFARGTLAEMVTWAQDHQLKGEFVLLIGGNPDK	failed
MILHRYLLRESLPVLLLALLFLTAVYLFGFFYAGARWLEGVPLPKILRWLSYHVPGIWVQVFPIALVTTTVLVFGRLAAEGAHFALLSAGIPLGRAALPLVAVGAVLSGLALYLQEYVVPEANNRVRVAWWDEIHTQGAGLFRLKGMQIPIGQGKSLYFQDFDMAAKEMVGVRITAFQGEVGTFLFAERGTWEDKTLTLKDYRYYQVDFAQVPGLETAPDLLAQVRRVFRVVSQGKTLEVTSDLSRARAIADYADTFSFGQDSLSEAWRKLKDPFLPPLEKWRARLELHSKLALPLANLVLVLLAAAMALRYGKSPGLALGMSVVLALAYYGAFFLGRALAGIGALPPELGAWGANLLFLLLGLRALR	failed
MIDRRRVRHSFHRQALEYDAHAAVQKRVVERFLQILDDEVGSPLRILDVGAGTGLLARQLADCHPAALLSCVDLAPGMAATARQRLGSRALVAVADAEHLPFAGASFDCVVSTSTFQWLTTLDAAFGEVWRVLAPGGLFAFALFGHGTFHELKDSYRSALTAVGREDEDRTQRFFTEAEAGAALERTGFGVRRLCVEDEVEWHPDVPAFLRSVKRVGAGNASPLRGRGLAERRVMVEMMRVYGERYGGERGIPATYTVIYGVGVKSGRK	failed
MDYPDLAPRARSWAPHLLGVLRIVAAFLFLQFGTAKLFAFPGPVMPGGGTAPLASLAGIAGAIEAFGGALLLVGLFSRPVAFLLSGEMAVAYFYGHAPQGFWPVLNQGTPAALFAFVFLYLAAAGPGRFSLDGLRGKDAP	failed
MRKMTGEEFDPLVSFFDGMAQASWLRPVHDRLKKGTGSWANRAVLDVGCGTGRLLARGVHEAAHLAGVDLSKQMVLATEERLHEHKQCGRLTVVQGDAYDLPFADESFDVCLSTCVMFLLPEPERGMKEMIRVLNGAGVIGMLNPTNKMNHAAAKAYCKKSGITGFEEKTLLQWSNVSTRRHRYTAEQLTHFFKQHGAWVVTHELVLDGLAVVTVASWNKLEHHHHHH	not failed
MNNQFSQRVSDIIVYSKEEANRLRSRHIGPEHLLLGMLRDGEGKAIEILSKLNTNLAAVKQQIEARLKTEADDMLLPDAEIPLSNDAAKILKMCILEARGMKSNIADTEHVLLAILRERNNMAASVLEANDVNYVKVLEQATLQPD	failed
MQTLLPLLARGAVLSPFKRPRPDAAFPHSRLVLSGVRIDLARLAAYERACGFPTGADALPLTYPHVLGFPLAMRIMASRAFPLPLLGLVHTSIEVTRLREPAATGEYELAVHVEGLTPHRRGTEATVVTGARVDGSLVWESRSTYLARHRRATDARTPADARTATDARTPADARTATDARTAADARTAAPVPSAEPKPLPVVAEWRLAADVGRRYAAVSGDRNPIHLHPLTARLFGFPRAIAHGMWTVARCLAEQPADASVQLRAEFKSPVLLPGTVTYAADGGRFELRGGERVHLTGELREYRANSA	failed
